Patent US9296811B2, “Methods for treating a tumor using an antibody that specifically binds HMW-MAA” (University of Pittsburgh—Of the Commonwealth System of …, priority 2010, dated 2016)
Entries after “also recorded” stand apart in the source; their conditions may differ.

How the values were obtained:
V600E mutated BRAF = V600E mutated BRAF (Homo sapiens, UniProt P15056, V600E); settings: cited from earlier work
[1] = test system: melanoma cell lines (Colo38, M21, SK-MEL-37, MV3, 1520); test: MTT cell growth assay, vemurafenib and C21; type: cell-based, human
[2] = test system: BRAF^V600E and BRAF^WT melanoma cell; test: MTT growth inhibition of melanoma cell lines by C21; type: cell-based, human; settings: BRAF^V600E and BRAF^WT cells, 3, 5 days
Procedure: FIG. 7. […] The indicated cells were seeded in triplicate in 96-well plates (2.5×10^3/well) and treated for 3, 5 days with C21 and 119 in RPMI 1640/1% FCS. Living cells were detected using MTT assays. The results are expressed as percent inhibition of cell growth, with untreated cells representing 100%. Mean values±SD were calculated from two independent experiments.

[3] = test system: human melanocytic lesions; test: Immunohistochemical staining of frozen sections of human melanocytic lesions with C21; type: binding; settings: benign pigmented nevus, primary melanoma, metastatic melanoma
Text: FIG. 6A-6F. Digital images of immunohistochemical staining of frozen sections of human melanocytic lesions with C21.

EGFR and PDGFRα = test: Activation of EGFR and PDGFRα in melanoma cells after C21; type: cell-based, human; settings: acquired resistance to BRAF inhibitor
[4] = test system: human melanoma BRAF(V600E)/CSPG4^+ xenografts; test: Survival of mice bearing M21 xenografts, vemurafenib and C21; type: in vivo; settings: M21 xenograft; vemurafenib 25 mg/kg orally twice a day for 13 days; C21 1 mg/mouse i.v. twice a week for 2 weeks; vs vemurafenib alone or vemurafenib+119
Procedure: FIG. 11. Improved response duration for vemurafenib in vivo. Human melanoma M21^BRAF(V600E)/CSPG4+ cells (2×10^6/mouse) were injected subcutaneously (s.c.) into 20 mice (day 0). By day 7, tumors were measurable, and mice were divided into four groups (5 mice/group) using a stratified randomization strategy. Mice received either vemurafenib, vemurafenib+C21, vemurafenib+119, or were untreated. Vemurafenib was delivered orally (25 mg/kg) twice a day for 13 days, while C21 or 119 were injected i.v. (1 mg/mouse) twice a week for 2 weeks. All mice were monitored for survival.

CSPG4 = biological target: T1, CSPG4 (Homo sapiens, UniProt Q6UVK1); test: FACS reactivity of C21 with established and patient-derived melanoma cell lines; type: binding; settings: established or patient-derived lines containing BRAF^V600E or BRAF^WT
T1 construct: Representative FACS analysis of CSPG4 expression by melanoma cell lines using CSPG4-specific C21 and PE-conjugated anti-human IgG; endogenous in cells; host or cells: established (1520, 836, Colo38, M21, MEL526, MV3, SK-MEL-28, SK-MEL-37, WM1158) and patient-derived (Mel-JR, Mel-KD, pre/post vemurafenib) human melanoma cell lines
T1 sequence (Q6UVK1 30-2322): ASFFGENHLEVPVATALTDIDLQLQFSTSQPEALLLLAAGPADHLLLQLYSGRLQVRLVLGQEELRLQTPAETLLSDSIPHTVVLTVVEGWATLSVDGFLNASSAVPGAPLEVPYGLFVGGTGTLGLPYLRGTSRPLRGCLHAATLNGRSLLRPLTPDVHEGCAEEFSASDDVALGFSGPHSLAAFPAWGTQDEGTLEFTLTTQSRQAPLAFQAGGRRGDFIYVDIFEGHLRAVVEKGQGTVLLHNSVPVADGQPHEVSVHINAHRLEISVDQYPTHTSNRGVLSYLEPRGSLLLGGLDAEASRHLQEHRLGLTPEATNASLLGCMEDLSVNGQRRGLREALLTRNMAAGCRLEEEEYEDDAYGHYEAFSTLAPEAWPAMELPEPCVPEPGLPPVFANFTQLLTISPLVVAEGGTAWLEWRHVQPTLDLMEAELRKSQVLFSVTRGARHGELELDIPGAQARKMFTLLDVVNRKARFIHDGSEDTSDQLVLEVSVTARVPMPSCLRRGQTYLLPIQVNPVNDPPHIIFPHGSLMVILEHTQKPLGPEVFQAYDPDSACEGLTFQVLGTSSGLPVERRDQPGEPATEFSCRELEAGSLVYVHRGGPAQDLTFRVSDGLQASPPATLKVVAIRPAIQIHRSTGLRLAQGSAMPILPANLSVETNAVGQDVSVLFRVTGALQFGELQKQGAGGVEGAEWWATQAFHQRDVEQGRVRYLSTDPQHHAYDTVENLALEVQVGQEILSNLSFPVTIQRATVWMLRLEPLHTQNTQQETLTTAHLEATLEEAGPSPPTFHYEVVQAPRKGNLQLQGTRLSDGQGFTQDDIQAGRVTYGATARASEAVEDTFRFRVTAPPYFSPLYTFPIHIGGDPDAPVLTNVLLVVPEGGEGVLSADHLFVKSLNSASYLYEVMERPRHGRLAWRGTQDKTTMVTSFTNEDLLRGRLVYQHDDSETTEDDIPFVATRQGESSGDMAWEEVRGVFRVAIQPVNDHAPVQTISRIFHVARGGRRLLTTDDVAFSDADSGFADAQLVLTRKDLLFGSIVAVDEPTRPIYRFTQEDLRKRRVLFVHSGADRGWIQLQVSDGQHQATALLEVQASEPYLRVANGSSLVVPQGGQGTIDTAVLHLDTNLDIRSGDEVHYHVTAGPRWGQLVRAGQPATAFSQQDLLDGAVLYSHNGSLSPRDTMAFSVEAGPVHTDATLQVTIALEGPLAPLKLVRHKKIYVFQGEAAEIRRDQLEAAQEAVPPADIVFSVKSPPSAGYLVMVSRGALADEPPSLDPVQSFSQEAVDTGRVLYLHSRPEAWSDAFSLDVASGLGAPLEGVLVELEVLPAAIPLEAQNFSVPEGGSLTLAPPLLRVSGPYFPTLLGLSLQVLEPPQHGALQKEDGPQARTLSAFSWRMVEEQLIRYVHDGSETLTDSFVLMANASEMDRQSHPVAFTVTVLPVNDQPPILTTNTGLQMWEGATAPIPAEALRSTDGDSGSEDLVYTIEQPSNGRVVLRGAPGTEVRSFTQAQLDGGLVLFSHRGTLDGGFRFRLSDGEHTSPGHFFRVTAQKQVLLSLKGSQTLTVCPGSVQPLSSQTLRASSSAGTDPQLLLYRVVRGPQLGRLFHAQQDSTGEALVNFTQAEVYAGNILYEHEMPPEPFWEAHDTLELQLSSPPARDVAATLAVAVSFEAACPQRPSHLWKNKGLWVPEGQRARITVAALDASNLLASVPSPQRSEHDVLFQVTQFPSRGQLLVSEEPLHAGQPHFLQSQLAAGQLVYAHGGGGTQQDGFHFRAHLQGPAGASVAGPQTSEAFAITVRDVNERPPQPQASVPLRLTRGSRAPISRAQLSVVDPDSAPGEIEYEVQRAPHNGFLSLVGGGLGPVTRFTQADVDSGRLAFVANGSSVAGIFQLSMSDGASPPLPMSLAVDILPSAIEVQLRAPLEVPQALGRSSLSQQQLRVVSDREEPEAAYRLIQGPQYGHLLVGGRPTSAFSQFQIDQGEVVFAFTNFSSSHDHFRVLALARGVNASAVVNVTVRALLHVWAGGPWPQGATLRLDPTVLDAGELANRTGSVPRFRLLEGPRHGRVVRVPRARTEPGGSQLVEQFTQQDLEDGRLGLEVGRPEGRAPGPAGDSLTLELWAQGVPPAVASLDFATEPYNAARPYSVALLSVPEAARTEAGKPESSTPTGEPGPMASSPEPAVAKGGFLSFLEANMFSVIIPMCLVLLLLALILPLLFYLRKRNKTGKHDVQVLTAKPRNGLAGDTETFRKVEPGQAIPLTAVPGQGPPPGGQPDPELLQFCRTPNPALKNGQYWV
Text: FIG. 5A to 5B. […] (FIG. 5A) Representative FACS analysis of CSPG4 expression by melanoma cell lines using CSPG4-specific C21 and PE-conjugated anti-human IgG. 119 was used as an isotype control. (FIG. 5B) A panel of melanoma cell lines bound by C21. *Percentage of CSPG4^+ cells. MFI: mean fluorescence intensity. The top section (1520, 836, Colo38, M21, MEL526, MV3, KS-MEL-28, SK-MEL-37, and WM1158) are established melanoma cell lines; The bottom section (MeI-JR(pre), MEL-JR(post), Mel-KD(pre), and Mel-KD(post)) are patient-derived human melanoma cell lines; pre: before vemurafenib (PLX4032) treatment, post: after vemurafenib (PLX4032) treatment.
A fully human mAb, scFc-FcC21 was produced by combining the HMW-MAA (CSPG4)-specific single chain of variable regions of heavy and light chains (scFv) to a Fc portion of IgG1 at the DNA level.

[5] = test system: normal human organ tissues; test: IHC staining of normal human organ tissue microarray with C21 (cross-reactivity); type: binding; settings: for IHC Result: normal human tissue, C21 4 μg/mL
melanoma cells = test: Prevention/delay of acquired resistance of melanoma cells to vemurafenib in vitro; type: cell-based, human
Procedure: FIG. 13. Prevention/delay of acquired resistance of melanoma cells to vemurafenib. Melanoma cells were seeded in 6-well plates (2.5×10^4 cells/well) containing 2 ml/well RPMI 1640/10% FCS. […] Cells received fresh growth medium every 4 days containing the appropriate treatment concentrations, for 28 days. Cells in randomly selected fields were photographed at different timepoints using a Zeiss Inverted Fluorescence Microscope
In addition, the results presented in FIG. 13 evidences that treatment with C21 delayed resistance to vemurafenib up to 28 days in vitro, at which point the rate of cell growth was unaffected by the presence or absence of vemurafenib (10 μM) in the absence of C21.

V600E mutated BRAF, sequence (P15056 whole entry V600E): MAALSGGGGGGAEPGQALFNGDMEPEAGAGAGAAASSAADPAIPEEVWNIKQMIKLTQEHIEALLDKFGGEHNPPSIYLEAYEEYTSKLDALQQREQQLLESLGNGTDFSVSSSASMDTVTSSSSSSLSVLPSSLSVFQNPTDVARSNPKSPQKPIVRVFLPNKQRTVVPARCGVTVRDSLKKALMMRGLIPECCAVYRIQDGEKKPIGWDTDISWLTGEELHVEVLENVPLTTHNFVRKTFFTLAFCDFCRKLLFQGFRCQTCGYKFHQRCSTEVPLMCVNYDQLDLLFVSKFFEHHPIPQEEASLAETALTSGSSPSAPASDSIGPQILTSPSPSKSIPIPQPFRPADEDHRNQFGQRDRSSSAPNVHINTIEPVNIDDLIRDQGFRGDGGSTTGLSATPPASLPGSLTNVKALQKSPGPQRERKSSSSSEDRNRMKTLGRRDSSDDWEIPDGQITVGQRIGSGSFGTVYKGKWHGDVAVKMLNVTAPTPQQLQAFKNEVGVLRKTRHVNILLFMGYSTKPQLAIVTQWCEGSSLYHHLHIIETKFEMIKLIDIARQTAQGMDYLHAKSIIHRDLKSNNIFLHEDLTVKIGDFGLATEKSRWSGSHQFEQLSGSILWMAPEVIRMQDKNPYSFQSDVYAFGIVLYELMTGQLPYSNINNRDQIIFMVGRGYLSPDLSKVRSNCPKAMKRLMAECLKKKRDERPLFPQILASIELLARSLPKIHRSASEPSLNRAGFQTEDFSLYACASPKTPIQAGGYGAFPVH

CCCS(=O)(=O)Nc1ccc(F)c(C(=O)c2c[nH]c3ncc(-c4ccc(Cl)cc4)cc23)c1F [vemurafenib, Vemurafenib]
response rate (V600E mutated BRAF; 32 BRAF mutated advanced melanoma patients, phase II study (Flaherty et al 2010)): 70% | tumor regression and overall survival (V600E mutated BRAF; Phase I clinical trials, advanced melanoma patients with the V600E BRAF mutation): effective in promoting tumor regression and increasing overall survival | median duration of response (V600E mutated BRAF; melanoma patients treated with BRAF selective inhibitor): ~8 months | cell growth ([1]; BRAF^WT MV3 cells, vemurafenib 500 nM): did not affect

B1: C21: fully human mAb: HMW-MAA (CSPG4)-specific scFv combined to a Fc portion of IgG1; SEQ ID NOs: 3 and 4 (antibody, listed as Homo sapiens, V domains shown)
VH: QVQLVQSGAEVKKPGSSVKVSCKASGGTFSSYAISWVRQAPGQGLEWMGGIIPIFGTANYAQKFQGRVTITADESTSTAYMELSSLRSDDTAVYYCARALDPITFDSWGQGTLVTVSR
VL: SELTQDPAVSVALGQTVRITCQGDSLRSYYASWYQQKPGQAPVLVIYGKNNRPSGIPDRFSGSSSGNTASLTITGAQAEDEADYYCNSRDSSGNHVVFGGGTKLTVLGRS
inhibition of melanoma cell growth in vitro [2]: Growth inhibition; also recorded: inhibited | IHC staining of melanocytic lesions [3]: homogeneous cytoplasmic and cytoplasmic membrane staining | cell growth ([1]; 1520 cells negative for CSPG4, C21 0.1 mg/mL): did not affect | activation of EGFR and PDGFRα (EGFR and PDGFRα): down-regulating activation | survival of mice [4]: prolonging the survival | reactivity with human melanoma cell lines (CSPG4): Broad reactivity | reactivity with human melanoma cell lines (CSPG4; listed as scFv-FcC21 (C21)): able to recognize | IHC Result ([5]; Cerebellum): negative | IHC Result ([5]; Cerebrum): negative | IHC Result ([5]; Colon): negative | IHC Result ([5]; Esophagus): negative | recognition of a panel of normal human organ tissues ([5]; FIG. 6, Table 2): not a panel of normal human organ tissues | IHC Result ([5]; Heart): negative | IHC Result ([5]; Kidney): negative | IHC Result ([5]; Liver): negative | IHC Result ([5]; Lung): negative | IHC Result ([5]; Lymph node): negative | IHC Result ([5]; Ovary): negative | IHC Result ([5]; Pancreas): negative | IHC Result ([5]; Peripheral nerve): negative | IHC Result ([5]; Pituitary gland): negative | IHC Result ([5]; Placenta): negative | IHC Result ([5]; Prostate): negative | IHC Result ([5]; Salivary gland): negative | IHC Result ([5]; Skeletal muscle): negative | IHC Result ([5]; Skin): negative | IHC Result ([5]; Small intestine): negative | IHC Result ([5]; Smooth muscle): negative | IHC Result ([5]; Spinal cord): negative | IHC Result ([5]; Spleen): negative | IHC Result ([5]; Stomach): negative | IHC Result ([5]; Testis): negative | IHC Result ([5]; Thymus): negative | IHC Result ([5]; Thyroid gland): negative | IHC Result ([5]; Ureter): negative | IHC Result ([5]; Uterine cervix): negative | delay of resistance to vemurafenib in vitro (melanoma cells; C21 0.1 mg/mL with vemurafenib increasing 500 to 10,000 nM): up to 28 days | onset of acquired resistance to vemurafenib (melanoma cells; melanoma cell line 1520, BRAF^V600E positive, CSPG4 negative): did not delay
